# Results from patent US9957308B2, “Method for detecting bilirubin using a fluorescent protein” (RIKEN, priority 2013, dated 2018).
# B1: UnaG: fluorescent polypeptide including the amino acid sequence of SEQ ID NO: 1, originally isolated from Japanese eel; fluoresces in the presence of bilirubin (protein, listed as Anguilla japonica)
# chain: MVEKFVGTWKIADSHNFGEYLKAIGAPKELSDGGDATTPTLYISQKDGDKMTVKIENGPPTFLDTQVKFKLGEEFDEFPSDRRKGVKSVVNLVGEKLVYVQKWDGKETTYVREIKDGKLVVTLTMGDVVAVRSYRRATE
# Assay: Detection of unconjugated bilirubin in human serum by apo UnaG fluorescence
# Details: apo UnaG added to 200-fold diluted human serum, room temperature, 527 nm
# Method: Blood (5 mL) was collected in a vacuum sealed blood collection tube (Neo-Tube, NIPRO) from a vein of the arm using a needle of 23G (Terumo Corporation) and a 5-mL cylinder (Terumo Corporation). The collected blood was shielded from light and was left to stand at room temperature for 30 min and was then centrifuged at a rotation speed of 3,000 rpm for 20 min (KUBOTA K-80) to collect about 2.5 mL of serum. The collected serum was cooled with ice while being shielded from light and was promptly subjected to measurement of bilirubin.
# Apo UnaG was added to the serum diluted with PBS by 200-fold so as to give a final concentration of 0.5 μM, and 200 μL of the mixture was added to each well of a 96-well microplate (black, non-binding, Greiner Bio-One). Measurement of fluorescence was started immediately after the addition of samples to the plate. The fluorescence intensity was measured at room temperature at every 10 min for 1 hr at a fluorescence wavelength of 527 nm (excitation wavelength: 497 nm) using EnSpire (trademark) multi-mode plate reader (PerkinElmer Co., Ltd.). Each serum was measured using three wells, and the serum not mixed with apo UnaG protein was also measured as background. The net fluorescence intensity was determined by subtracting the intensity level of the background from the intensity level of the serum mixed with apo UnaG protein. […]
molecule,measurement,value
B1,time stable fluorescence lasts,≥ 1 h
same,time until stable fluorescence is generated,about 10 min
